T1: VEGFR-3-Fc (UniProt P35916 25-328)
T1 construct: domain: first three Ig domains; conditioned supernatant of 293T cells; also called VEGFR-3-Fc fusion protein; not shown: Fc fragment of the pIg vector
T1 sequence (looked up): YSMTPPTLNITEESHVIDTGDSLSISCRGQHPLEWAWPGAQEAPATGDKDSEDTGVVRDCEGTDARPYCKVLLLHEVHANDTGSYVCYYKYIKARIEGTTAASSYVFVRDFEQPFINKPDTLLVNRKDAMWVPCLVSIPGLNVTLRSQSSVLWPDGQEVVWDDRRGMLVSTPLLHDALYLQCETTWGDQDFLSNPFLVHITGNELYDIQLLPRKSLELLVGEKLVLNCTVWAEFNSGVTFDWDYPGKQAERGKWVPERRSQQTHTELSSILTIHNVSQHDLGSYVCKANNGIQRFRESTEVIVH


Key:
Assay in all cases: receptor-Fc IP
VEGFR-1-Fc = biological target: T2, VEGFR-1-Fc (UniProt P17948 27-338)
T2 construct: domain: first three Ig domains; expressed in Drosophila S2 cells, purified on Protein A sepharose; also called VEGFR-1-Fc fusion protein; not shown: Fc fragment from the Signal-pIgPlus vector
In short: (§1)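 fusion protein at 400 ng/ml in an IP mix (PBS, 1.5% BSA, 0.06% Tween 20, 3 μg/ml heparin) was combined with sample supernatant at a 1:2 ratio. Bound ligand captured by immunoprecipitation with pentahistidine antibody.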

VEGFR-2-Fc = biological target: T3, VEGFR-2-Fc (UniProt P35968 20-322)
T3 construct: domain: first 3 Ig domains; conditioned supernatant of 293T cells; also called VEGFR-2-Fc fusion protein; not shown: Fc fragment of the pIg vector
In short: as §1

VEGFR-3-Fc = biological target: T1, VEGFR-3-Fc
In short: as §1

T3 sequence (P35968 20-322): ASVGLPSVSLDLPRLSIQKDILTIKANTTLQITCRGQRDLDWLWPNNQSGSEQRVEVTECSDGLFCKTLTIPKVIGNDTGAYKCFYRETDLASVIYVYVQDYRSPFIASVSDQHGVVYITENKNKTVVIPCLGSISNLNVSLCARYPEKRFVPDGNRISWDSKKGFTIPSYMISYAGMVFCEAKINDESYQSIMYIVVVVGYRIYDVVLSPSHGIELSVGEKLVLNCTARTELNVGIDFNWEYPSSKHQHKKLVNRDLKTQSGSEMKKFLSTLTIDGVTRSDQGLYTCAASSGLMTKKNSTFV
T2 sequence (P17948 27-338): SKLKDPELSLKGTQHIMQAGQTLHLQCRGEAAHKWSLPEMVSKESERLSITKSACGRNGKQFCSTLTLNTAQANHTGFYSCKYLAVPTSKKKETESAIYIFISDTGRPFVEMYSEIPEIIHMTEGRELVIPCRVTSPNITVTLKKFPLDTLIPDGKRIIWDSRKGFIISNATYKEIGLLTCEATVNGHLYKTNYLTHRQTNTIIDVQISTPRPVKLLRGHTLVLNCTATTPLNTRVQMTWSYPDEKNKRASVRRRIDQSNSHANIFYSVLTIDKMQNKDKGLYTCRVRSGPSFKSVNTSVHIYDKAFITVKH

| binding result (VEGFR-1-Fc) | binding result (VEGFR-2-Fc) | binding result (VEGFR-3-Fc) | Binder |
| --- | --- | --- | --- |
| no binding | no binding | no binding | 24-12 (ligand) AHYNTEILKSIDNEWRKTQCMPREVCIDVGKEFGVATNTFFKPSCVPLMRCGGCCNSEGLQCMNTSTSYLSKTLFEITVPLSQGPKPVTISFLQHNKCECRPKKD |
| no binding | no binding | no binding | 21-12 (ligand) AHYNTEILKSIDNEWRKTQCMPREVCIDVGKEYPDEIEYIFKPSCVPLMRCGGCCNSEGLQCMNTSTSYLSKTLFEITVPLSQGPKPVTISFLQHNKCECRPKKD |
| no binding | no binding | no binding | 32-6 (ligand) GQNHHEVVKSIDNEWRKTQCMPIETLVDIFQEFGVATNTFFKPPCVSVYRCGGCCNDEGLECMNTSTSYLSKTLFEIKPHQGQHIGEMSFANHTSCRCMSKLD |
| no binding | no binding | no binding | 32-8 (ligand) GQNHHEVVKSIDNEWRKTQCMPIETLVDIFQEFGVATNTFFKPPCVSVYRCGGCCNSEGLQCMNTSTSYLSKTLFEIKPHQGQHIGEMSFANHTSCRCMSKLD |
| no binding | no binding | no binding | 32-1 (ligand) GQNHHEVVKSIDNEWRKTQCMPIETLVDIFQEFGVATNTFFKPPCVSVYRCGGCCNDEGLECVPTEESNITMQIMRIKPHQGQHIGEMSFLQHNKCECRPKKD |
| no binding | no binding | no binding | 32-5 (ligand) GQNHHEVVKSIDNEWRKTQCMPIETLVDIFQEFGVATNTFFKPPCVSVYRCGGCCNDEGLECVPTEESNITMQIMRIKPHQGQHIGEMSFANHTSCRCMSKLD |
| no binding | no binding | no binding | 32-7 (ligand) GQNHHEVVKSIDNEWRKTQCMPIETLVDIFQEFGVATNTFFKPPCVSVYRCGGCCNSEGLQCVPTEESNITMQIMRIKPHQGQHIGEMSFANHTSCRCMSKLD |
| no binding | no binding | no binding | 32-3 (ligand) GQNHHEVVKSIDNEWRKTQCMPIETLVDIFQEFGVATNTFFKPPCVSVYRCGGCCNSEGLQCVPTEESNITMQIMRIKPHQGQHIGEMSFLQHNKCECRPKKD |
| no binding | no binding | no binding | 24-11 (ligand) AHYNTEILKSIDNEWRKTQCMPREVCIDVGKEFGVATNTFFKPSCVPLMRCGGCCNSEGLQCVPTEESNITMQIMRITVPLSQGPKPVTISFLQHNKCECRPKKD |
| no binding | no binding | no binding | 24-15 (ligand) AHYNTEILKSIDNEWRKTQCMPREVCIDVGKEFGVATNTFFKPSCVPLMRCGGCCNSEGLQCVPTEESNITMQIMRITVPLSQGPKPVTISFANHTSCRCMSKLD |
| no binding | no binding | no binding | 24-13 (ligand) AHYNTEILKSIDNEWRKTQCMPREVCIDVGKEFGVATNTFFKPSCVPLMRCGGCCNDEGLECVPTEESNITMQIMRITVPLSQGPKPVTISFANHTSCRCMSKLD |
